This passage reports Kd results from article PMC5889866.

The target of experiment [1] is minicollagen peptide H-Gly-Pro-Arg-Gly-(Pro-Hyp-Gly)12-NH2. In words: SPR; […] (BIACORE); […]; 10 mM sodium HEPES pH 7.4, 150 mM NaCl, 1 mM CaCl2, 0.005% Tween-20; 20 ul/min; 25 C; […]. (In general: In SPR one partner is held on a chip, and binding of the other changes the refractive index at the surface.)
Experiment [2] has the same target. The experiment is described as follows: SPR; minicollagen peptide amine-coupled on a CM5 chip (BIACORE); collagen anchors as analyte, eight concentrations 100 nM-300 uM; 10 mM sodium HEPES pH 7.4, 150 mM NaCl, 1 mM CaCl2, 0.005% Tween-20; 20 ul/min; 25 C; equilibrium responses fitted; apparent KD.

“PKD-CBD (s2b-s3) of Clostridium histolyticum class II collagenase ColH (domain or fragment)” returned a Kd in experiment [1] of 445 µM.

Consider “CBD (s3b) of Clostridium histolyticum class I collagenase ColG (domain or fragment)”, for which, in experiment [2], the Kd amounted to 45.4 µM. On the same count and under the same terms, the value for “CBD-CBD (s3a-s3b) of Clostridium histolyticum class I collagenase ColG (domain or fragment)” was 44.6 µM. In experiment [1], “CBD (s3) of Clostridium histolyticum class II collagenase ColH (domain or fragment)” had a Kd of 752 µM.
